According to the supplement of paper PMC9112550, “Optimization of the antimicrobial peptide Bac7 by deep mutational scanning” (BMC Biology, 2022):

system: Escherichia coli TOP10; experiment: shrunken log2 fold change of peptide-encoding DNA abundance (4.5 h post-induction vs induction); higher = less antimicrobial activity (less host growth inhibition); conditions: time post-induction: 4.5 h; library: site-saturation at positions 5, 18, 19, 20
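Note: peptides expressed intracellularly from a pBAD plasmid library in pooled LB shake-flask culture, induced with 0.3% L-arabinose, DNA abundance read by NGS, three biological replicates, DESeq2 with apeglm shrinkage.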

| Sequence | shrunken log2 fold change |
| --- | --- |
| RRIRCRPPRLPRPRPRPWSTPRP | -0.148 |
| RRIRNRPPRLPRPRPRPNVWPRP | 0.0184 |
| RRIRCRPPRLPRPRPRPMSLPRP | -0.163 |
| RRIRIRPPRLPRPRPRPKYLPRP | -0.437 |
| RRIRTRPPRLPRPRPRPSGIPRP | -0.0172 |
| RRIRSRPPRLPRPRPRPRTQPRP | 0.107 |
| RRIRVRPPRLPRPRPRPQVHPRP | -0.14 |
| RRIRARPPRLPRPRPRPNDQPRP | 0.226 |
| RRIRMRPPRLPRPRPRPKQWPRP | 0.895 |
| RRIRKRPPRLPRPRPRPPQPPRP | 0.856 |
| RRIRARPPRLPRPRPRPFRLPRP | 0.114 |
| RRIRCRPPRLPRPRPRPLCHPRP | -0.213 |
| RRIRKRPPRLPRPRPRPPAAPRP | 0.932 |
| RRIRVRPPRLPRPRPRPCYIPRP | -0.281 |
| RRIRFRPPRLPRPRPRPCSLPRP | -0.122 |
| RRIRLRPPRLPRPRPRPGEEPRP | 0.143 |
| RRIRNRPPRLPRPRPRPFLIPRP | 0.117 |
| RRIRDRPPRLPRPRPRPRWSPRP | 0.264 |
| RRIRQRPPRLPRPRPRPTDGPRP | 0.178 |
| RRIRVRPPRLPRPRPRPDCKPRP | -0.104 |
| RRIRYRPPRLPRPRPRPWNMPRP | -0.186 |
| RRIRRRPPRLPRPRPRPIKHPRP | 0.0383 |
| RRIRFRPPRLPRPRPRPDMAPRP | -0.108 |
| RRIRIRPPRLPRPRPRPKTWPRP | -0.258 |
| RRIRDRPPRLPRPRPRPFKRPRP | -0.00875 |

| Sequence | shrunken log2 fold change |
| --- | --- |
| RRIRNRPPRLPRPRPRPEPAPRP | 0.88 |
| RRIRYRPPRLPRPRPRPFMNPRP | -0.0199 |
| RRIRWRPPRLPRPRPRPNRQPRP | 0.175 |
| RRIRYRPPRLPRPRPRPANDPRP | -0.0297 |
| RRIRVRPPRLPRPRPRPSRLPRP | 0.599 |
| RRIRDRPPRLPRPRPRPNQIPRP | -0.044 |
| RRIRARPPRLPRPRPRPCNFPRP | -0.478 |
| RRIRERPPRLPRPRPRPFNGPRP | -0.145 |
| RRIRNRPPRLPRPRPRPRKFPRP | -0.101 |
| RRIRKRPPRLPRPRPRPHYYPRP | -0.0852 |
| RRIRNRPPRLPRPRPRPENAPRP | -0.133 |
| RRIRERPPRLPRPRPRPGQAPRP | -0.00166 |
| RRIRSRPPRLPRPRPRPTDFPRP | -0.541 |
| RRIRDRPPRLPRPRPRPHNMPRP | -0.135 |
| RRIRCRPPRLPRPRPRPNRQPRP | -0.216 |
| RRIRWRPPRLPRPRPRPHGHPRP | -0.0213 |
| RRIRFRPPRLPRPRPRPHCNPRP | -0.548 |
| RRIRDRPPRLPRPRPRPDHIPRP | -0.0651 |
| RRIRWRPPRLPRPRPRPIYMPRP | -0.118 |
| RRIRLRPPRLPRPRPRPLCHPRP | -0.253 |
| RRIRMRPPRLPRPRPRPMMCPRP | -0.0746 |
| RRIRSRPPRLPRPRPRPNAVPRP | -0.205 |
| RRIRIRPPRLPRPRPRPLTMPRP | -0.181 |
| RRIRWRPPRLPRPRPRPCLVPRP | 0.144 |
| RRIRPRPPRLPRPRPRPPNFPRP | 0.0501 |

| Sequence | shrunken log2 fold change |
| --- | --- |
| RRIRNRPPRLPRPRPRPHDYPRP | 0.0503 |
| RRIRYRPPRLPRPRPRPHMWPRP | -0.621 |
| RRIRGRPPRLPRPRPRPNVGPRP | 0.125 |
| RRIRSRPPRLPRPRPRPFVQPRP | -0.496 |
| RRIRNRPPRLPRPRPRPMLTPRP | -0.296 |
| RRIRCRPPRLPRPRPRPMPRPRP | 0.0702 |
| RRIRQRPPRLPRPRPRPEFTPRP | -0.0117 |
| RRIRMRPPRLPRPRPRPAGYPRP | 0.572 |
| RRIRARPPRLPRPRPRPHMRPRP | 0.669 |
| RRIRERPPRLPRPRPRPDMKPRP | 0.0475 |
| RRIRIRPPRLPRPRPRPVYPPRP | -0.233 |
| RRIRYRPPRLPRPRPRPPCIPRP | -0.583 |
| RRIRMRPPRLPRPRPRPLYAPRP | 0.063 |
| RRIRGRPPRLPRPRPRPCHTPRP | -0.0963 |
| RRIRLRPPRLPRPRPRPQVDPRP | -0.136 |
| RRIRNRPPRLPRPRPRPWPAPRP | 0.0494 |
| RRIRRRPPRLPRPRPRPPGTPRP | 0.705 |
| RRIRKRPPRLPRPRPRPRCKPRP | 0.00437 |
| RRIRHRPPRLPRPRPRPCCVPRP | -0.193 |
| RRIRLRPPRLPRPRPRPWYKPRP | -0.0396 |
| RRIRIRPPRLPRPRPRPWLKPRP | 4.66 |
| RRIRTRPPRLPRPRPRPMDKPRP | -0.528 |
| RRIRYRPPRLPRPRPRPVKQPRP | -0.00131 |
| RRIRVRPPRLPRPRPRPMCCPRP | -0.0676 |
| RRIRERPPRLPRPRPRPSYNPRP | -0.924 |

| Sequence | shrunken log2 fold change |
| --- | --- |
| RRIRRRPPRLPRPRPRPKHPPRP | 0.294 |
| RRIRGRPPRLPRPRPRPYSGPRP | -0.0221 |
| RRIRVRPPRLPRPRPRPHRCPRP | 0.0572 |
| RRIRQRPPRLPRPRPRPIAQPRP | 0.0718 |
| RRIRDRPPRLPRPRPRPDMLPRP | 0.00888 |
| RRIRHRPPRLPRPRPRPDDHPRP | 0.0155 |
| RRIRSRPPRLPRPRPRPLGCPRP | 0.285 |
| RRIRLRPPRLPRPRPRPGVGPRP | 0.537 |
| RRIRARPPRLPRPRPRPCHHPRP | -0.0114 |
| RRIRHRPPRLPRPRPRPIQKPRP | -0.00174 |
| RRIRARPPRLPRPRPRPYFQPRP | -0.383 |
| RRIRMRPPRLPRPRPRPYDQPRP | 0.102 |
| RRIRIRPPRLPRPRPRPDWPPRP | 0.0262 |
| RRIRKRPPRLPRPRPRPELTPRP | 2.29 |
| RRIRQRPPRLPRPRPRPYKNPRP | -1.02 |
| RRIRLRPPRLPRPRPRPCSCPRP | 0.00383 |
| RRIRKRPPRLPRPRPRPSFYPRP | -0.391 |
| RRIRCRPPRLPRPRPRPQVPPRP | -0.106 |
| RRIRMRPPRLPRPRPRPALMPRP | 0.114 |
| RRIRCRPPRLPRPRPRPGFTPRP | -0.131 |
| RRIRSRPPRLPRPRPRPLMPPRP | 0.121 |
| RRIRQRPPRLPRPRPRPMCQPRP | -0.053 |
| RRIRCRPPRLPRPRPRPWSGPRP | -0.0937 |
| RRIRTRPPRLPRPRPRPGVRPRP | 0.272 |
| RRIRTRPPRLPRPRPRPHCSPRP | -0.0966 |

| Sequence | shrunken log2 fold change |
| --- | --- |
| RRIRVRPPRLPRPRPRPRDMPRP | -0.0624 |
| RRIRVRPPRLPRPRPRPMQDPRP | 0.0217 |
| RRIRARPPRLPRPRPRPHPNPRP | 0.21 |
| RRIRVRPPRLPRPRPRPDSEPRP | -0.105 |
| RRIRRRPPRLPRPRPRPEYCPRP | 0.0246 |
| RRIRDRPPRLPRPRPRPIQMPRP | 0.137 |
| RRIRLRPPRLPRPRPRPSQYPRP | -0.504 |
| RRIRVRPPRLPRPRPRPFSHPRP | -0.358 |
| RRIRTRPPRLPRPRPRPVVNPRP | 0.0198 |
| RRIRMRPPRLPRPRPRPPQSPRP | 0.721 |
| RRIRCRPPRLPRPRPRPMRPPRP | 0.214 |
| RRIRARPPRLPRPRPRPAMVPRP | 0.109 |
| RRIRVRPPRLPRPRPRPAIVPRP | -0.149 |
| RRIRRRPPRLPRPRPRPSMGPRP | -0.0183 |
| RRIRKRPPRLPRPRPRPGVSPRP | 0.497 |
| RRIRTRPPRLPRPRPRPSARPRP | 0.0995 |
| RRIRMRPPRLPRPRPRPCKPPRP | -0.173 |
| RRIRNRPPRLPRPRPRPFTYPRP | -0.0143 |
| RRIRNRPPRLPRPRPRPILDPRP | -0.0452 |
| RRIRIRPPRLPRPRPRPHVVPRP | -0.0217 |
| RRIRARPPRLPRPRPRPLNPPRP | -0.111 |
| RRIRRRPPRLPRPRPRPWCGPRP | 0.282 |
| RRIRRRPPRLPRPRPRPWEPPRP | 0.0979 |
| RRIRVRPPRLPRPRPRPTWHPRP | 0.384 |
| RRIRGRPPRLPRPRPRPELFPRP | 1.63 |
